The target of experiment [1] is T1, TNF-α (Homo sapiens, UniProt P01375).
T1 construct: made in house; host or cells: E. coli (co-expressed with biotin ligase BirA)
As to the kind of experiment: Verification of mapping: recovery from a 100:1 EMP1SS / TNF-α-DW mixture by TNF-α pull-down, PCR and gel electrophoresis. Conditions: an21-Phe linker; mRNA or cDNA input; FIG. 6. It is filed as binding. Here is the method: This mixture was used to perform experiments similar to those described above, and the recovered DNA was amplified by PCR under the following conditions. That is, 20 μL of a reaction solution containing Taq polymerase and a test sample solution in PCR (taq-) buffer was prepared and reacted by temperature cycling of 30 cycles of {94° C. 40 sec, 61° C. 40 sec, 72° C. 40 sec} (with a slope of 0.5° C./sec from 61° C. to 72° C.) using a thermal cycler. 2.5 μL of the reaction product solution was separated by electrophoresis using a gel consisting of TAE (40 mM Tris-acetate, 1 mM EDTA) and 3% agarose (low electroendosmosis, NACALAI TESQUE, INC.), and electrophoretograms were obtained under a transilluminator after staining with ethidium bromide.
A band derived from the mRNA encoding TNF-α-DW is observed at the position of about 90 bp, while a band derived from the mRNA encoding the control EMP1SS is observed at the position of about 150 bp. When the an21-ACCA linker containing no peptidyl acceptor was used, only a band derived from the mRNA of EMP1SS was observed, reflecting the molar ratio of the two types of cDNA in the initial mixture.

Experiment [2] concerns the target T2, Human tumor necrosis factor-alpha (TNF-α) (Homo sapiens, UniProt P01375).
T2 construct: made in house; host or cells: E. coli (co-expressed with biotin ligase BirA)
Description: Yield of peptide-mRNA complexes presenting TNF-α-DW, recovered with biotinylated TNF-α on streptavidin beads and quantified by real-time PCR. As to conditions: peptide aptamer TNF-α-DW. Here is the method:
In the case where an mRNA is preliminarily prepared by transcription reaction and then translated into a peptide and the resulting peptide is fused to a linker, a peptide-mRNA complex was prepared by the following procedure. First, 4 mM sodium acetate, pH 5.0 and mRNA were mixed in 1:3, and the mixture was heated on a thermoblock at 95° C. for 1 minute and then allowed to stand at room temperature for 5 min. A 25 μM linker solution dissolved in 1 mM sodium acetate was added and the mixture was allowed to stand for 10 minutes to form an mRNA-linker complex. To this were added the other components of the translation system and the mixture was incubated in a constant-temperature water bath (NT-202D, Nissin Scientific Corporation) at 37° C. for 30 minutes, then at room temperature for 12 min, and 0.1 M EDTA (ethylenediaminetetraacetic acid, molecular biology grade, NACALAI TESQUE, INC.) adjusted to pH 7.5 was added at a final concentration of 20 mM, and the mixture was further incubated in the constant-temperature water bath at 37° C. for 30 minutes.
In the case where a cDNA is added to a reaction solution and transcription, translation and fusion to a linker are performed in this reaction solution, a peptide-mRNA complex was prepared by the following procedure. […]
For orientation: Quantitative PCR measures a nucleic acid by following its amplification.

T2 sequence (P01375 with tags, fused parts or gaps): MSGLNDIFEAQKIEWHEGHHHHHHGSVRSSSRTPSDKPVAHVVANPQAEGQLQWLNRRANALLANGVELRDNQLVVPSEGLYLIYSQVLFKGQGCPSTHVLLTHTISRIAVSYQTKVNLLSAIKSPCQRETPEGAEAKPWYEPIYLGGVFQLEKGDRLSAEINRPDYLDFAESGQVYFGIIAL
T1 sequence (P01375 with tags, fused parts or gaps): as above

For the substance XQRLHCLYLKH (X: Ac-D-Trp) [TNF-α-DW], the “binding of the presented peptide to the target protein” value in experiment [1] is “binds to the target protein”.
On the same count and under the same terms, the same measure for “XAAGGTYSSHFGPLTWVSKPQGGAA, wherein X is Ac-D-Trp [EMP1SS, reference compound]”: “does not bind to the target”.
As for “5′-CCCGCCTCCCGCCCCCCGTCC-[SPC18]5-A*-C*-C*-A*-3′ [an21-ACCA]”, the “yield of peptide-mRNA complexes” value in experiment [2] (cDNA added to the reaction solution (one-pot transcription/translation), FIG. 5) turned out to be 0.007%; in experiment [2] (mRNA added to the translation reaction solution, FIG. 4), 0.015%.
